The target in assay [1] is T1, mouse PCSK9, 8xHis-tagged (mouse, UniProt Q80W65 35-694, limits assumed).
T1 construct: also called mPCSK9-8xHIS; mPCSK9
Put plainly: KinExA solution equilibrium.
Description: (§1) Briefly, Reacti-Gel™ (6×) (Pierce) was pre-coated with one of human, V5-tagged cyno or His-tagged mouse PCSK9 proteins and blocked with BSA. […] Equilibrium dissociation constant (KD) were obtained from nonlinear regression of the two sets of competition curves using a one-site homogeneous binding model. The KinExA® Pro software was employed in the analysis.

Assay [2] addresses T2, cynomolgus monkey PCSK9, V5- and 6xHis-tagged (cynomolgus monkey, UniProt A0A7N9D9N8 150-747).
T2 construct: also called cPCSK9-V5-6xHIS; CynoPCSK9
Put plainly: KinExA solution equilibrium.
Description: as §1

For assay [3], the target named is T2, cynomolgus monkey PCSK9, V5- and …. Nature of the assay: BIAcore SPR, antibody amine-coupled to CM5 chip, PCSK9 as analyte, pH 7.4.
Protocol: Briefly, the surface plasmon resonance experiments were performed using Biacore 2000 optical biosensors (Biacore, GE Healthcare, Piscataway, N.J.). […] The concentration of PCSK9 protein was varied at 2 fold intervals (the analyte) and was injected over the immobilized antibody surface (at a flow rate of 100 μl/min for 1.5 minutes).
Antibody binding kinetic parameters including kₐ (association rate constant), kd (dissociation rate constant), and KD (dissociation equilibrium constant) were determined using the BIA evaluation 3.1 computer program (BIAcore, Inc. Piscataway, N.J.).
Assay [4] has the same target. Put plainly: BIAcore solution equilibrium assay, free PCSK9 read on immobilized 21B12.

Here are results for 3 molecules from patent US20140357851A1 (published 2014).

B1: 16F12, anti-PCSK9 huIgG4 (antibody, V domains shown)
VH: QVHLVESGGGVVQPGRSLRLSCAASGFTFNSFGMHWVRQAPGKGLEWVALIWSDGSDEYYADSVKGRFTISRDNSKNTLYLQMNSLRAEDTAVYYCARAIAALYYYYGMDVWGQGTTVTVSS
VL: QSVLTQPPSVSAAPGQKVTISCSGSSSNIGNNFVSWYQQLPGTAPKLLIYDYNKRPSGIPDRFSGSKSGTSATLGITGLQTGDEADYYCGTWDSSLSAYVFGTGTRVTVLQ
notes: also called 16F12 IgG4; 16F12.1
Turning to B1, the “fold lower affinity to mouse PCSK9 than to human and cyno PCSK9” value in assay [1] fell in the range of 10 to 250 fold. In addition, the results for the equilibrium dissociation constant (Kd) in assay [2] and in assay [3] were 0.016 nM and 0.87 nM, respectively.

B2: 21B12, anti-PCSK9 huIgG4 (antibody, V domains shown)
VH: QVQLVQSGAEVKKPGASVKVSCKASGYTLTSYGISWVRQAPGQGLEWMGWVSFYNGNTNYAQKLQGRGTMTTDPSTSTAYMELRSLRSDDTAVYYCARGYGMDVWGQGTTVTVSS
VL: QSALTQPASVSGSPGQSITISCTGTSSDVGGYNSVSWYQQHPGKAPKLMIYEVSNRPSGVSNRFSGSKSGNTASLTISGLQAEDEADYYCNSYTSTSMVFGGGTKLTVLQ
notes: also called 21B12 IgG4; 21B12.1
With B2, the Kd amounted to 0.011 nM in assay [4] and 0.36 nM in assay [3].

B3: 31H4, anti-PCSK9 huIgG4 (antibody, V domains shown)
VH: EVQLVESGGGLVKPGGSLRLSCAASGFTFSSYSMNWVRQAPGKGLEWVSSISSSSSYISYADSVKGRFTISRDNAKNSLYLQMNSLRAEDTAVYFCARDYDFWSAYYDAFDVWGQGTMVTVSS
VL: QSVLTQPPSVSGAPGQRVTISCTGSSSNIGAGYDVHWYQQLPGTAPKLLISGNSNRPSGVPDRFSGSKSGTSASLAITGLQAEDEADYYCQSYDSSLSGSVFGGGTKLTVLQ
Take B3: the Kd was 0.002 nM in assay [2] and 0.19 nM in assay [3].
